{"source": "patent US10590168B2", "about": "“Substrates for FLT3 kinase and uses thereof” (REGENTS OF THE UNIVERSITY OF MINNESOTA, priority 2016, dated 2020)", "molecular_target": "T1, FLT3 (Homo sapiens, UniProt P36888)", "T1 sequence (P36888 27-993)": "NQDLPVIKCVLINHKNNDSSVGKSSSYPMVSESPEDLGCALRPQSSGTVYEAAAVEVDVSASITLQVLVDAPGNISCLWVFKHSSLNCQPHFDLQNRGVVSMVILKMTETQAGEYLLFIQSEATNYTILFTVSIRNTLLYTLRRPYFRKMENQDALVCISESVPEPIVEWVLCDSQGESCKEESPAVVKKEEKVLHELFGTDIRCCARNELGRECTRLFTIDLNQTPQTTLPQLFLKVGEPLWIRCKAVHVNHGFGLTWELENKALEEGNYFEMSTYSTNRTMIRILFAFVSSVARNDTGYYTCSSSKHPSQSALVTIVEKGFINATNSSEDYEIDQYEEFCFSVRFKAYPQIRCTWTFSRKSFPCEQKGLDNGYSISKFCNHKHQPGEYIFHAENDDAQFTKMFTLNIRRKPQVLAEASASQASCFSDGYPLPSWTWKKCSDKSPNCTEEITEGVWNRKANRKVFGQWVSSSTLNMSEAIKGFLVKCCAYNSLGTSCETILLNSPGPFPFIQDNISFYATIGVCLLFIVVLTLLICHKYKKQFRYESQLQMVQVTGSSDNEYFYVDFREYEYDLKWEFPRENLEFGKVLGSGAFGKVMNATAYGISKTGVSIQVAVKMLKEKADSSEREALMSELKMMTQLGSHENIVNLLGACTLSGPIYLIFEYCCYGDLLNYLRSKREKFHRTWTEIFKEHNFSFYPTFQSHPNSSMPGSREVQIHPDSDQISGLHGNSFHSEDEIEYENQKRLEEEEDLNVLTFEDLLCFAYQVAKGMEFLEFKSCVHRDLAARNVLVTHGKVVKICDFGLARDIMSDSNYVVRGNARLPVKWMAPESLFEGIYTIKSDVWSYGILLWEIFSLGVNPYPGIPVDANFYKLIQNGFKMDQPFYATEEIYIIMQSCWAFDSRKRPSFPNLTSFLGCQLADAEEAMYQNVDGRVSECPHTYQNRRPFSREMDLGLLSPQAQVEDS", "experiment": "Phosphorylation of existing peptide substrate by FLT3", "type": "biochemical", "details": "in the applicant's experience"}
{"sequence": "FTDRLQQYISTR [Flt3tide, previously reported Flt3 substrate peptide (Böhmer & Uecker 2009)]", "values": [{"measurement": "phosphorylation by FLT3", "result": "poorly phosphorylated"}]}
